Experimental data reported in US11795460B2, “Compositions and methods for TTR gene editing and treating ATTR amyloidosis” (Intellia Therapeutics, Inc., priority 2017, dated 2023).
Strand notation (5' to 3'): a small letter for the sugar, then the base; units joined by * are phosphorothioate-linked, units joined directly phosphodiester-linked; [ ] holds rarer units or linkages, { } end groups; capitals alone tell only the bases. m = 2'-O-methyl; r = 2'-OH (RNA)

Tested on: mouse TTR
Experiment: Serum mouse TTR ELISA in mice dosed with LNP formulations (Table 28)
Assay type: in vivo
Conditions: wild type CD-1 mice; 1, 0.3, 0.1, 0.03, or 0.01 mg/kg; FIG. 15B
Method: Blood was collected and the serum was isolated as indicated. The total mouse TTR serum levels were determined using a Mouse Prealbumin (Transthyretin) ELISA Kit (Aviva Systems Biology, Cat. OKIA00111); rat TTR serum levels were measured using a rat specific ELISA kit (Aviva Systems Biology catalog number OKIA00159); human TTR serum levels were measured using a human specific ELISA kit (Aviva Systems Biology catalog number OKIA00081); each according to manufacture's protocol. Briefly, sera were serial diluted with kit sample diluent to a final dilution of 10,000-fold, or 5,000-fold when measuring human TTR in mouse sera. […] The absorbance of the contents was measured on the Spectramax M5 plate reader with analysis using SoftmaxPro version 7.0 software. Serum TTR levels were quantitated off the standard curve using 4 parameter logistic fit and expressed as ug/mL of serum or percent knockdown relative control (vehicle treated) animals.
In separate experiments using wild type CD-1 mice, an LNP formulation comprising guide G000502, which is cross homologous between mouse and cyno, was tested in a dose response study. […] Liver editing results were determined using primers designed to amplify the region of interest for NGS analysis. […]

B1: G000502: TTR Cyno specific sgRNA modified sequence, SEQ ID No. 114; guide sequence of CR000689; cross homologous between mouse and cyno (nucleic acid)
guide: mA*mC*mA*rCrArArArUrArCrCrArGrUrCrCrArGrCrGrGrUrUrUrUrArGrAmGmCmUmAmGmAmAmAmUmAmGmCrArArGrUrUrArArArArUrArArGrGrCrUrArGrUrCrCrGrUrUrArUrCrAmAmCmUmUmGmAmAmAmAmAmGmUmGmGmCmAmCmCmGmAmGmUmCmGmGmUmGmCmU*mU*mU*mU
- Serum mouse TTR levels, dose response: A dose response for both editing and serum TTR levels was evident
